Data: US20250009780A1, “AGENTS ENCODING CLDN6 AND CD3 BINDING ELEMENTS FOR TREATING CLDN6-POSITIVE CANCERS” (BIONTECH SE, priority 2021, published 2025)

Target: human CD3 (human) (UniProt P09693)
Assay: cell-based or functional assay

Sequence of human CD3 (human) (chain, as listed by the source, chain 1 of 3): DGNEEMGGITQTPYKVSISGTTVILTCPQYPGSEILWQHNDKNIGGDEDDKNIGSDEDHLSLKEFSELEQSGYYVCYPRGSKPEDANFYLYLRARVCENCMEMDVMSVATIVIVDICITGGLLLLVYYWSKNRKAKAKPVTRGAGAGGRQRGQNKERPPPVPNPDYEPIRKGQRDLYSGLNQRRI
Sequence of human CD3 (human) (P09693 23-182, chain 2 of 3): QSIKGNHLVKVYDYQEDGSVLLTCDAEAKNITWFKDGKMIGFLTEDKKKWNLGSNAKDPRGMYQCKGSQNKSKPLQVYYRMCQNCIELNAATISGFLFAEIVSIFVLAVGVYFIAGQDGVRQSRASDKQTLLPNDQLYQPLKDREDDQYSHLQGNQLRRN
Sequence of human CD3 (human) (P04234 22-171, chain 3 of 3): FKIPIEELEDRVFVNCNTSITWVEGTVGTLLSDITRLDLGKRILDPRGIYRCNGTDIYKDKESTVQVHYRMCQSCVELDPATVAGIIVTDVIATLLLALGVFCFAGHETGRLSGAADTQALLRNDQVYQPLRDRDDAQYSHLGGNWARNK

**Q.** For OKT3 antibody, which T-cell activation (CD69/CD25, flow cytometry, 48 h) is on record?
**A.** > 50%
